Experimental findings from FireProtDB (doi:10.1111/j.1432-1033.1993.tb17904.x) are described below.

“And” between values parts separate entries of the source, which are not always exact repeats. Equal values may be shown once.

For this series the following is noted: Carica papaya, Thermal, DSC, glycine-HCl 5 mM, reversible: yes, whole UniProt chain shown.

B1: Papain wild type, P00784 (protein)
chain: MAMIPSISKLLFVAICLFVYMGLSFGDFSIVGYSQNDLTSTERLIQLFESWMLKHNKIYKNIDEKIYRFEIFKDNLKYIDETNKKNNSYWLGLNVFADMSNDEFKEKYTGSIAGNYTTTELSYEEVLNDGDVNIPEYVDWRQKGAVTPVKNQGSCGSCWAFSAVVTIEGIIKIRTGNLNEYSEQELLDCDRRSYGCNGGYPWSALQLVAQYGIHYRNTYPYEGVQRYCRSREKGPYAAKTDGVRQVQPYNEGALLYSIANQPVSVVLEAAGKDFQLYRGGIFVGPCGNKVDHAVAAVGYGPNYILIKNSWGTGWGENGYIRIKRGTGNSYGVCGLYTSSFYPVKN
Usually Tm stands for the temperature at the midpoint of the melting transition. For the protein B1, the “unfolding enthalpy (calorimetric)” value reads like this: (pH 1.9) 119 kcal/mol and 98.7 kcal/mol; (pH 2.4) 133 kcal/mol and 143 kcal/mol and 111 kcal/mol; (pH 2.9) 154 kcal/mol and 162 kcal/mol; (pH 3.5) 206 kcal/mol and 226 kcal/mol and 189 kcal/mol; (pH 3.9) 229 kcal/mol and 232 kcal/mol and 198 kcal/mol. Also, the “unfolding enthalpy (van 't Hoff)” value reads like this: (pH 1.9) 65.2 kcal/mol and 50.6 kcal/mol; (pH 2.4) 72.6 kcal/mol and 82.3 kcal/mol and 62.9 kcal/mol; (pH 2.9) 79.6 kcal/mol and 89.2 kcal/mol; (pH 3.5) 113 kcal/mol and 118 kcal/mol and 98.9 kcal/mol; (pH 3.9) 132 kcal/mol and 130 kcal/mol and 114 kcal/mol. The melting temperature (Tm) (pH 2.9) was 69.5 °C and 70.4 °C.
